# Test results: PMC2735845
# Tests used:
# E. coli SSB113 (E. coli) = E. coli SSB113 (E. coli) (UniProt P0AGE0)
# [1] = target: E. coli SSBΔC1 (SSB lacking its C-terminal-most residue) (E. coli) (UniProt P0AGE0)
# [2] = target: E. coli SSB-mixed (E. coli) (UniProt P0AGE0)
substance,measurement,setting,value
"E. coli RecQ (wild type, full-length, hexahistidine-tagged) (from UniProt P15043 1-609) (enzyme)",Fold stimulation of RecQ helicase activity by SSB113,E. coli SSB113 (E. coli),0.9 fold
same,Fold stimulation of RecQ helicase activity by SSBΔC1,[1],0.6 fold
same,Fold stimulation of RecQ helicase activity by SSB-mixed,[2],0.7 fold
